From US20230270832A1 (published 2023)

Molecular target: T1, MAGEA1 peptide on HLA-C*07:02 (human)
T1 peptide: VRFFFPSL
Assay: killing

B1: MAGEA1 TCR 32-39 (TCR, V domains shown)
Valpha: DQQVKQNSPSLSVQEGRISILNCDYTNSMFDYFLWYKKYPAEGPTFLISISSIKDKNEDGRFTVFLNKSAKHLSLHIVPSQPGDSAVYFCAASAQNNDMRFGAGTRLTVKP
Vbeta: NAGVMQNPRHLVRRRGQEARLRCSPMKGHSHVYWYRQLPEEGLKFMVYLQKENIIDESGMPKERFSAEFPKEGPSILRIQQVVRGDSAAYFCASSPSYEQYFGPGTRLTVT
B1: recognises.

B2: MAGEA1 TCR 32-41 (TCR, V domains shown)
Valpha: TQLLEQSPQFLSIQEGENLTVYCNSSSVFSSLQWYRQEPGEGPVLLVTVVTGGEVKKLKRLTFQFGDARKDSSLHITAAQPGDTGLYLCAGDESISYGKLTFGQGTILTVHP
Vbeta: DAGVIQSPRHEVTEMGQEVTLRCKPISGHDYLFWYRQTMMRGLELLIYFNNNVPIDDSGMPEDRFSAKMPNASFSTLKIQPSEPRDSAVYFCASSFLGWNEKLFFGSGTQLSVL
B2: recognises.
